We go through one molecule from patent US9505841B2, “Use of an anti-Ang2 antibody” (Samsung Electronics Co., Ltd., priority 2013, dated 2016).

For experiment [1], the target named is T1, Ang2-Tie2 binding (Homo sapiens, UniProt O15123).
T1 construct: purchased R&D Systems (hTie2-Fc)
T1 sequence (O15123 19-496): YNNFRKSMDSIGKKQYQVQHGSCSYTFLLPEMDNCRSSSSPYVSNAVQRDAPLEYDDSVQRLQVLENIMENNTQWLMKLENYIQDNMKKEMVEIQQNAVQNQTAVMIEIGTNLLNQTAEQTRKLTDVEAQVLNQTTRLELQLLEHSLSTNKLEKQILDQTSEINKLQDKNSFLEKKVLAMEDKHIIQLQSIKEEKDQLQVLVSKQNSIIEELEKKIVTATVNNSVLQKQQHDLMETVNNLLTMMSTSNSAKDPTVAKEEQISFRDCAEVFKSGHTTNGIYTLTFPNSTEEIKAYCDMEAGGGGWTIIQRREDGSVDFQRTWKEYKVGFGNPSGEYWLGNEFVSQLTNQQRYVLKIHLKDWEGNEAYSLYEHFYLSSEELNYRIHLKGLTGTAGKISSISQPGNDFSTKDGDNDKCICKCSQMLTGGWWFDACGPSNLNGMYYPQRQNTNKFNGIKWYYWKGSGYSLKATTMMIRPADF
Kind of experiment: Ang2-Tie2 binding competition ELISA. The note with it: antibody 400 nM to 0.001 nM; 400 ng/ml FLAG-tagged hAng2; hTie2-Fc coated plate. As for the experimental part:
Ang2-Tie2 binding competition ELISA was conducted using the antibody binding to Ang2 prepared in Example 2-1 above.
More specifically, MaxiSorp™ flat-bottom plate (Nunc) of 96-well was coated with hTie2-Fc (R&D Systems) which is a protein bound with 4 ug (microgram)/ml of Fc of human IgG1. After that, the plate was washed five times with 0.05% (v/v) Tween-20-containing PBS (phosphate buffer saline) and then blocked with 1% (v/v) BSA (bovine serum albumin; Sigma)-containing PBS at a room temperature for 2 hour.
For Ang2:Tie2 competition ELISA, each anti-Ang2 antibody obtained in Example 2 was placed at various concentrations of 400 nM to 0.001 nM into each well coated with the hTie-2/Fc fusion protein along with 1% (v/v) BSA and 400 ng/ml of a FLAG-tagged hAng2 and then, the plate was allowed to react at a room temperature for 2 hours and washed five times with PBST. […] Lastly, 100 ul (microliter) of TMB substrate (Cell Signaling) was added to each well of the plate to induce color development for 3 min. and then, the reaction was ceased by the addition of 100 ul of Stop solution (Cell Signaling) and OD450 values were measured on a plate reader (Molecular Devices). […]
(In general: An ELISA detects its analyte on a solid surface through an enzyme-linked reagent.)

For experiment [2], the system named is LLC tumor. Kind of experiment: Co-administration of anti-Ang2 antibody and cisplatin in LLC lung cancer animal model. It counts as in vivo, mouse. The note with it: LLC mice; antibody 10 mg/kg i.p. every three days, five times; cisplatin 3 mg/kg i.p. once; control Fc of IgG1. How it is done: The synergistic effect of co-treatment of antibody 10D6 and cisplatin was examined.
In particular, referring to Example 14, LLC tumor cells were subcutaneously injected into mice. When the size of tumors reached 50˜100 mm^3, anti-Ang2 antibody 10D6 was injected at the concentration of 10 mg/kg via an intraperitoneal injection every three days a total of five times. After administering antibody 10D6 twice, 3 mg/kg of cisplatin (Sigma-Aldrich) was intraperitoneally injected once. The size of tumor (V) was calculated using the following formula: Volume (V)=(width)2×length/2
For comparison, the same experiment was performed to a control group treated with Fc of IgG1 and a comparative group treated with antibody 4H10.
In addition, an experiment was performed to examine whether the synergistic effect obtained by co-administration of 10D6 and cisplatin as described above is due to the increased transporting efficiency of the administered cisplatin induced by the vascular normalization by treatment of 10D6. Cisplatin binds to DNA in a living body and induces crosslinking, thereby inducing cell death. Rat monoclonal anti-Cisplatin modified DNA (CP9/19) antibody (1:200, Abcam), which is capable of binding to DNA modified by cisplatin in tumor frozen sections, and hamster anti-CD31 antibody (1:200, Millipore), were used for immunofluorescence staining, and fluorescence images were obtained using LSM5 confocal microscope (Zeiss). In addition, to examine necrotic region, the tumor frozen sections were stained with H&E according to standard protocol, and then, Eosin+ cell region in tumor was observed. The obtained results are illustrated in FIG. 18C.

Experiment [3] concerns LLC (Lewis Lung Carcinoma). Kind of experiment: LLC tumor growth model. It counts as in vivo, mouse. The note with it: LLC in C57BL/6 mice; 10 mg/kg intraperitoneal three times a week; control Fc of IgG1. How it is done: To see the tumor growth inhibitory effects of Ang2 antibody, a […] Xenograft model using a LLC (Lewis Lung Carcinoma) was employed.
LLC cells (ATCC) were cultured using 10% FBS (Gibco)-supplemented DMEM (Gibco) media. 1×10^6 of LLC cells were re-suspended in 100 ul of PBS (Gibco) and then subcutaneously injected into 6˜8-week-old C57BL/6 mice (Jackson Laboratory) anesthetized with 1˜2% isoflurane.
When the size of tumors reached 50˜100 mm^3, anti-Ang2 antibody (10D6) was injected at the concentration of 10 mg/kg via an intraperitoneal injection three times a week and the size of the tumors was measured.
The size of tumor (V) was calculated using the following formula: Volume (V)=(width)2×length/2
For comparison, the same experiment was performed to a control group treated with Fc of IgG1 and a comparative group treated with antibody 4H10 (refer to Example 3).

B1: 4H10: anti-Ang2 antibody inhibiting Ang2-Tie2 binding; heavy chain variable region SEQ ID NO: 12, light chain variable region SEQ ID NO: 13 (antibody, V domains shown)
VH: EVQLLESGGGLVQPGGSLRLSCAASGFTFSSYDMSWVRQAPGKGLEWVSLISPDSSSIYYADSVKGRFTISRDNSKNTLYLQMNSLRAEDTAVYYCAKDLISFWRGGFDYWGQGTLVTVSS
VL: QSVLTQPPSASGTPGQRVTISCSGSSSNIGSNYVNWYQQLPGTAPKLLIYADSNRPSGVPDRFSGSKSGTSASLAISGLRSEDEADYYCGSWDYSLSGYVFGGGTKLTVLG
modifications: Synthetic (heavy chain variable region of 4H10); Synthetic (light chain variable region of 4H10)
Turning to B1, the “inhibition of Ang2-Tie2 binding” value in experiment [1] is given as “inhibiting Ang2-Tie2 binding”. In experiment [2], the “tumor size decreased by, compared to the control” value worked out at 29.2%. For the same molecule, the “inhibition of growth of the tumor compared to the control group” value in experiment [3] was “about 27%”.
